Molecular target: the molecule itself
Test: crystal structure; hanging drop vapor diffusion at ambient temperature; space group I222; solved by molecular replacement; asymmetric unit of two biological dimers; wild-type data to 2.7 Å, Cys426 data to 3.25 Å

B1: ParC55, 55.5 kDa N-terminal breakage-reunion domain of Streptococcus pneumoniae topoisomerase IV subunit A (ParC) (domain or fragment)
chain: MSNIQNMSLEDIMGERFGRYSKYIIQDRALPDIRDGLKPVQRRILYSMNKDSNTFDKSYRKSAKSVGNIMGNFHPHGDSSIYDAMVRMSQNWKNREILVEMHGNNGSMDGDPPAAMRYTEARLSEIAGYLLQDIEKKTVPFAWNFDDTEKEPTVLPAAFPNLLVNGSTGISAGYATDIPPHNLAEVIDAAVYMIDHPTAKIDKLMEFLPGPDFPTGAIIQGRDEIKKAYETGKGRVVVRSKTEIEKLKGGKEQIVIIEIPYEINKANLVKKIDDVRVNNKVAGIAEVRDESDRDGLRIAIELKKDANTELVLNYLFKYTDLQINYNFNMVAIDNFTPRQVGIVPILSSYIAHRREVILARSRFDKEKAEKRLHIVEGLIRVISILDEVIALIRASENKADAKENLKVSYDFTEEQAEAIVTLQLYRLTNTDVVVLQEEEAELREKIAMLAAIIGDERTMYNLMKKELREVKKKFATPRLSSLEDTAKALE
notes: ParC (topoisomerase IV subunit A), S. pneumoniae strain 7785, residues 1-490, with the substitution I489L needed for plasmid construction; also called wild-type ParC55; N-terminal ParC domain; source: E. coli, pET29a expression plasmid, purified by Ni2+-NTA chromatography; not shown: His6, C-terminal, kept
B1: binds.

B2: ParC55 Cys426 (ParC55 with Arg426 changed to Cys) (domain or fragment)
chain: MSNIQNMSLEDIMGERFGRYSKYIIQDRALPDIRDGLKPVQRRILYSMNKDSNTFDKSYRKSAKSVGNIMGNFHPHGDSSIYDAMVRMSQNWKNREILVEMHGNNGSMDGDPPAAMRYTEARLSEIAGYLLQDIEKKTVPFAWNFDDTEKEPTVLPAAFPNLLVNGSTGISAGYATDIPPHNLAEVIDAAVYMIDHPTAKIDKLMEFLPGPDFPTGAIIQGRDEIKKAYETGKGRVVVRSKTEIEKLKGGKEQIVIIEIPYEINKANLVKKIDDVRVNNKVAGIAEVRDESDRDGLRIAIELKKDANTELVLNYLFKYTDLQINYNFNMVAIDNFTPRQVGIVPILSSYIAHRREVILARSRFDKEKAEKRLHIVEGLIRVISILDEVIALIRASENKADAKENLKVSYDFTEEQAEAIVTLQLYCLTNTDVVVLQEEEAELREKIAMLAAIIGDERTMYNLMKKELREVKKKFATPRLSSLEDTAKALE
notes: PDB 2NOV holds the parent (wild-type ParC55); No entry of its own is named for the Cys426 data set; also called ParC Cys426; Cys426 mutant; source: E. coli, purified by Ni2+-NTA chromatography as for wild-type ParC55
B2: binds.
